{
  "source": "the RNAGym collection of RNA variant scans (doi:10.1073/pnas.2313332121)",
  "parents": {"B1": {"name": "TPR 5TU (parent)", "chain": "GGAUCUUCUCGAUCUAACAAAAAAGACAAAUCUGCCACAAAGCUUGAGAGCAUCUUCGGAUGCAGAGGCGGCAGCCUUCGGUGGCGCGAUAGCGCCAACGUUCUCAACUAUGACACGCAAAACGCGUGCUCCGUUGAAUGGAGUUUAUCAUG"}},
  "note": "Fewer inactive variants are shown than the library holds.",
  "data": [
    {"variants_of": "B1", "assay": "polymerase ribozyme fitness, log enrichment relative to wild type (log ratio); higher = more active; in vitro selection for triplet polymerase activity", "procedure,_shortened": "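To select mutant libraries of each subunit of a heterodimeric triplet polymerase ribozyme, built by PCR and transcribed, each was annealed with a biotinylated primer, partner subunit and triplets, then incubated frozen at −7 °C. Extended constructs were gel-excised, captured on streptavidin beads and amplified by RT-PCR, in one round carried out in triplicate. Illumina sequencing of input and output libraries kept genotypes with ≥10 input reads and ≥1 read per output. Fitness is the base-2 logarithm of genotype enrichment relative to wild-type enrichment, from inverse-variance-weighted replicate averages.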", "values": [
      {"variant": "GGAUCUUCUCGAUCUAACAAAAUAGUCAAAUCUGCCACAAUGCUUGAGAACAUCUUCGGAUGCACAGGCGGCAGCCUUCGGUGGCGCGAUCGCGCCAACGUUGUCAACUAUGACACGCAAAACGCGUUCUCCGUUGAAUGGAGUUUAUCAUG", "note": "[A23U A26U A41U G50A G65C A91C C103G G128U]", "polymerase ribozyme fitness (log ratio)": "≤ -4.2"},
      {"variant": "GGAUCUUCUCGAUCUAACAAAAUAGACAAAUCUGCCACAAAGCUUGAGAGCAUCUUCGGAUGCAGAGGCGGCAGCCUUCGGUGGCGCGAUAGCGCCAACGUUCUCAACUAUGACACGCAAAACGCGUGCUCCGUUGAAUGGAGUUUAUCGUG", "note": "[A23U A150G]", "polymerase ribozyme fitness (log ratio)": "≤ -4.2"},
      {"variant": "GGAUCUUCUCGAUCUAACAAAAUAGUCAAAUCUGCCACAAAGCUUGAGAGAAUCUUCGGAUGCAGUGGCGGCAGCCUUCGGUGGUGCGAUAGCGCCAACGUUCUCAACUAUGACACGCAAAACGCGUGCUCCGUUGAAUGGAGUUUACCAUG", "note": "[A23U A26U C51A A66U C85U U148C]", "polymerase ribozyme fitness (log ratio)": "≤ -4.2"},
      {"variant": "GGAUCUUCUCGAUCUAACAAAAUAGACAAAUCUGACACAACGCUUGAGAGCAUCGUCGGAUGCAGAGGCGGCAGCCUUCGGUGGCCCGAUAGCGGCAACGUUCUAAACUAUGACACGCAAAACGCGUGCUCCGUUGAAUGGAGUUUAUCAUG", "note": "[A23U C35A A41C U55G G86C C95G C105A]", "polymerase ribozyme fitness (log ratio)": "≤ -4.2"},
      {"variant": "GGAUCUUCUCGAUCUAACAAAAUAGACAAAUCUGCUACAAAGCUUGAGAGCAUCUUCGGAUGCAGAGGCGGCAGCCUUCGGUGGAGCGAUAGCGCGUACGUUCUCAACUAUGACACGCAAAACGCGUGCUCCGUUGAAUGGAGUUUAUCAUG", "note": "[A23U C36U C85A C96G A97U]", "polymerase ribozyme fitness (log ratio)": "≤ -4.2"},
      {"variant": "GGAUCUUCUCGAUCUAACAAAAUAGACAAAUCUGCCACAAAGCUUGAGAGCAUCUUCGGAUGCCGAAGCGGCAGCCUUCGCUGGCGCGAUAGCGCCAACGUUCUCAACUAUGACACGCAAAACGCGUGCUCCGUUGAAUGGAGUUUAUCAUG", "note": "[A23U A64C G67A G81C]", "polymerase ribozyme fitness (log ratio)": "≤ -4.2"},
      {"variant": "GGAUCUUCUCGAUCUAACAAAAUAGACAAAUCUGCCAUAAAGCUUGAGAGCAUCUUCGCAUGCAGAGGCGGCAGCCUUCGGUGGCGCGAUAGCGACAACGUUCUCAACUAUGACACGCAAAACGCGUGCUCCGUUGAAUGGAGUUUAUCAGG", "note": "[A23U C38U G59C C95A U151G]", "polymerase ribozyme fitness (log ratio)": "≤ -4.2"},
      {"variant": "GGAUCUUCUCGAUCUAACAAAAUAGACAUAUCUGCCACAAAGCUUGAGAGCAUCUUCGGAUGCAGAGGCGGCAGCCUUGGUUGGCGCGAUAGGGCCAACGUUCUCAACUAUGACACGCAAAACGCGUGCUCCGUUGAAUGGAGUUUAUUAUG", "note": "[A23U A29U C79G G81U C93G C149U]", "polymerase ribozyme fitness (log ratio)": "≤ -4.2"},
      {"variant": "GGAUCUUCUCGAUCUAACAAAAUAGACAAAUCUGCCACAAAGUUUGAGAGCAUCUUCGCGUGCAGAGGCGGCAGCCUUCGGUGGCGCGAUAGCCCCAACGUUCUCAACUAUGACACGCAAAACGCGUGCUCCGUUGAAUGGAGUUUAUCAUG", "note": "[A23U C43U G59C A60G G94C]", "polymerase ribozyme fitness (log ratio)": "≤ -4.2"},
      {"variant": "GGAUCUUCUCGAUCUAACAAAAUAGACAAGUCUGCCACAAAUCUUGAGAGCUUCUACGGAUGCAGAGGCGGGAGCCUUCGGUGGCGCGAUAGCGGCAACGUUCUCAACUAUGAGACGCAAAACGCGUGCUCCGUUGAAAGGAGUUUAUCAUG", "note": "[A23U A30G G42U A52U U56A C72G C95G C114G U139A]", "polymerase ribozyme fitness (log ratio)": "≤ -4.2"},
      {"variant": "GGAUCUUCUCGAUCUAACAAAAUAGACAAAUCUGCCACAAAGCUUGAGAGCAUCUUCGGAUGCAGAGGCGGCAGCCUUCGGUGGCGCGAUGGCGCCAACGUUCUCAACUAUGACACGCAAAACGCGUGCUCCGUUGAAUGGAGUUUAUCAUG", "note": "[A23U A91G]", "polymerase ribozyme fitness (log ratio)": "≤ -4.2"},
      {"variant": "GGAUCUUCUCGAUCUAACAAAAUAGAGAAAUCUGCCACAGAGCUUGUGAGCAUCUUCGGAUGCAGAAGCGGCAGCCUUCGGUUACGCGAUAGCGCCAACGUUCUCAACUAUGACACGCAAAACGCGUGCUCCGUUGAAUGGAGUUUAUCAUG", "note": "[A23U C27G A40G A47U G67A G83U G84A]", "polymerase ribozyme fitness (log ratio)": "≤ -4.2"},
      {"variant": "GGAUCUUCUCGAUCUAACAAAAUAGACAAAUCUGCCACAAAGCUUGAGAGCAUAUUCGGAUGCAGAGGCGGCAGCCUUCGGUUGCGCGAUAGCGCCAACGUGCUCAACUAUGACACGCAAAACGCGUGCUCCGUUGAAUGGAGUUUAUCAUG", "note": "[A23U C54A G83U U102G]", "polymerase ribozyme fitness (log ratio)": "≤ -4.2"},
      {"variant": "GGAUCUUCUCGAUCUAACAAAAUAGACAAAUCUGCCACAAAGGUUGAAAGCAUCUUCGGAUGCAGAGGCGGCAGCCUUCGGUGGCGCGAUAACGCCAGCGUUCUCAACUAUGACACGCAAAACGCGUGCUCCGUUGAAUGGAGUUUUUCAUC", "note": "[A23U C43G G48A G92A A98G A147U G152C]", "polymerase ribozyme fitness (log ratio)": -3.84},
      {"variant": "GGAUCUUCUCGAUCUAACAAAAUAGACAAAUCUGCCACAAAGCUUGAGAGCAUCUUCGGAUGCAGAGGCGGCAGCCUUCGGUGGCGCGAUAGCGCCAACGUUCUCAACUAUGACACGCAAAACGCGUGCUCCGUUGAAUGGAGUUUAUCAUG", "note": "[A23U]", "polymerase ribozyme fitness (log ratio)": -3.23},
      {"variant": "GGAUCUUCUCGAUCUAACAAAAUAGACAAAUCUGCCAUAAAGCUUGAGAGCAUCUUCGGAUGCAGAGGCGGCAGCCUUCGGUGGCGCGAUAGCGCCAACGUUCUCAACUAUGACACGCAAAACGCGUGCUCCGUUGAAUGGAGUUUAUCAUG", "note": "[A23U C38U]", "polymerase ribozyme fitness (log ratio)": -4.06},
      {"variant": "GGAUCUUCUCGAUCUAACAAAAUAGACAAAUCUGCCACAGAGCUUGAGAGCAUCUUCGGAUGCAGAGGCGGCAGCCUUCGGUGGCGAGAUAGCGCCAACGUUCUCAACUAUGACACGCAAAACGCGUGCUCCGUUGAAUGUAGUUUAUCAUG", "note": "[A23U A40G C87A G141U]", "polymerase ribozyme fitness (log ratio)": "≤ -4.2"},
      {"variant": "GGAUCUUCUCGAUCUAACAAAAUAGACAAGUCUGCCACAAAGCUAGAGAGCAUCUUCGGAUGCAGAGGCGGCAGCCUUCGGUGGCGCGAUAGCGCCGACUUUCUCAACUAUGACACGCAAAACGCGUGCUCCGUUGAAUGGAGUUUAUCAUG", "note": "[A23U A30G U45A A97G G100U]", "polymerase ribozyme fitness (log ratio)": -4.19},
      {"variant": "GGAUCUUCUCGAUCUAACAAAAUAGCCAAAUCUGCCACAAAGCUUGAGAACAUCUUCGGAUGCAGAGGCGGCAGCCUUCGGUGGCGCGAUAGCGCCAACGUUCUCAACUAUGACACGCAAAACGCGUGCUCCGUUGAAUGGAGUUUAUCAUG", "note": "[A23U A26C G50A]", "polymerase ribozyme fitness (log ratio)": "≤ -4.2"}
    ]}
  ]
}
